Laboratory results taken from PMC6821020, “Arabidopsis thaliana alternative dehydrogenases: a potential therapy for mitochondrial complex I deficiency? Perspectives and pitfalls” (Orphanet Journal of Rare Diseases, 2019).

Substrate: NC(=O)C1=CN([C@@H]2O[C@H](COP(=O)(O)OP(=O)(O)OC[C@H]3O[C@@H](n4cnc5c(N)ncnc54)[C@H](O)[C@@H]3O)[C@@H](O)[C@H]2O)C=CC1
Assay: cells, lysate or membranes
Assay type: biochemical, Arabidopsis thaliana
Conditions: rotenone-resistant activity in AtNDA2-transfected control fibroblasts, DCQ 50 μM, rotenone 8 μM, KCN 650 μM, 10 mM KH2PO4 pH 7.2, BSA, 37 °C

B1: AtNDA2 (Arabidopsis thaliana) (protein)
chain: SPAKIPNDVDRSQYSGLPPTREGEKPRVVVLGSGWAGCRLMKGIDTNLYDVVCVSPRNHMVFTPLLASTCVGTLEFRSVAEPISRIQPAISREPGSFFFLANCSRLDADAHEVHCETLTDGLNTLKPWKFKIAYDKLVIASGAEASTFGIHGVMENAIFLREVHHAQEIRRKLLLNLMLSDTPGISKEEKRRLLHCVVVGGGPTGVEFSGELSDFIMKDVRQRYAHVKDDIHVTLIEARDILSSFDDRLRRYAIKQLNKSGVRFVRGIVKDVQSQKLILDDGTEVPYGLLVWSTGVGPSPFVRSLGLPKDPTGRIGIDEWMRVPSVQDVFAIGDCSGYLETTGKPTLPALAQVAEREGKYLANLLNAIGKGNGGRANSAKEIELGVPFVYKHLGSMATIGRYKALVDLRESKDAKGISMTGFVSWFIWRSAYLTRVISWRNRFYVAINWFTTFVFGRDISRI
notes: lentiviral expression in human control fibroblasts (NHDF); permeabilised cells
  Km: 9.7 ± 3.3 µM
